# Experimental data taken from the supplement of paper PMC5998384.
# Key:
# HeLa Kyoto [1] = assay: thermal stability score vs G1/S (z-score of summed log2 fold changes over temperatures); higher = more thermally stable than in G1/S
# HeLa Kyoto [2] = assay: melting temperature (median over replicates), in situ; higher = more thermally stable
# [3] = cell cycle stage: early G1 (4.5 h after nocodazole release)
# 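For melting temperature (median over replicates), in situ in this document: HeLa Kyoto cells synchronized by double thymidine or nocodazole block, proteins quantified by TMT10plex mass spectrometry, three independent biological replicates.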
# 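For thermal stability score vs G1/S (z-score of summed log2 fold changes over temperatures) in this document: synchronized HeLa Kyoto cells, proteins quantified by TMT10plex mass spectrometry, three biological replicates, mitosis taken 0.5 h after nocodazole release, G1/S directly after double thymidine block.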
# MARK3, sequence (chain, as listed by the source): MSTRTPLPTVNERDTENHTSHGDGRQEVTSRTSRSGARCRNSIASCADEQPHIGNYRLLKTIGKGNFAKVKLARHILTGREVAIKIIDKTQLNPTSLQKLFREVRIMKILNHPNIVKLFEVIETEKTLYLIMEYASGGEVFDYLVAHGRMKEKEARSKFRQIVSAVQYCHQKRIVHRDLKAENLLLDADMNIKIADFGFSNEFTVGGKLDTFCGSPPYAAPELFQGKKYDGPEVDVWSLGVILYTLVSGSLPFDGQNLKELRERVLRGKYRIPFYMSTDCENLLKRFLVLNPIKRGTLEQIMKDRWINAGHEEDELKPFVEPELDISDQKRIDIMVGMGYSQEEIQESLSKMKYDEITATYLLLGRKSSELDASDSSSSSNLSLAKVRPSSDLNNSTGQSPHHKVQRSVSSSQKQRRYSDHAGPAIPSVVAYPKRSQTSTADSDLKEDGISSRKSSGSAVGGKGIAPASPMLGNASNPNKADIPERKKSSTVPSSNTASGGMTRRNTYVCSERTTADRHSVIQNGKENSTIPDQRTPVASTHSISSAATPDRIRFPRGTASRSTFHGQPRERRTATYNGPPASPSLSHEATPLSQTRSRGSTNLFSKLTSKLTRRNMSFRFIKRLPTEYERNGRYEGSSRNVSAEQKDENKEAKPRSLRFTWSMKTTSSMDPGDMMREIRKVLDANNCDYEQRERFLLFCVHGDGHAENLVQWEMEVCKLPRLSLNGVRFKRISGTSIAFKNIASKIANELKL
Substance,thermal stability score (HeLa Kyoto [1]; [3]),thermal stability score (HeLa Kyoto [1]; cell cycle stage: mitosis),melting temperature (HeLa Kyoto [2]; cell cycle stage: G1/S) [°C],melting temperature (HeLa Kyoto [2]; cell cycle stage: mitosis) [°C]
MAAPLVLVLVVAVTVRAALFRSSLAEFISERVEVVSPLSSWKRVVEGLSLLDLGVSPYSGAVFHETPLIIYLFHFLIDYAELVFMITDALTAIALYFAIQDFNKVVFKKQKLLLELDQYAPDVAELIRTPMEMRYIPLKVALFYLLNPYTILSCVAKSTCAINNTLIAFFILTTIKGSAFLSAIFLALATYQSLYPLTLFVPGLLYLLQRQYIPVKMKSKAFWIFSWEYAMMYVGSLVVIICLSFFLLSSWDFIPAVYGFILSVPDLTPNIGLFWYFFAEMFEHFSLFFVCVFQINVFFYTIPLAIKLKEHPIFFMFIQIAVIAIFKSYPTVGDVALYMAFFPVWNHLYRFLRNIFVLTCIIIVCSLLFPVLWHLWIYAGSANSNFFYAITLTFNVGQILLISDYFYAFLRREYYLTHGLYLTAKDGTEAMLVLK [PIGU],0.038,-0.34,–,–
MAKVSVLNVAVLENPSPFHSPFRFEISFECSEALADDLEWKIIYVGSAESEEFDQILDSVLVGPVPAGRHMFVFQADAPNPSLIPETDAVGVTVVLITCTYHGQEFIRVGYYVNNEYLNPELRENPPMKPDFSQLQRNILASNPRVTRFHINWDNNMDRLEAIETQDPSLGCGLPLNCTPIKGLGLPGCIPGLLPENSMDCI [ASF1B],-3.88,-1.16,–,–
MARK3,-0.371,0.161,–,–
MARKALKLASWTSMALAASGIYFYSNKYLDPNDFGAVRVGRAVATTAVISYDYLTSLKSVPYGSEEYLQLRSKSWPVFLQVHLRSARRLCELCCANRGTFIKVGQHLGALDYLLPEEYTSTLKVLHSQAPQSSMQEIRQVIREDLGKEIHDLFQSFDDTPLGTASLAQVHKAVLHDGRTVAVKVQHPKVRAQSSKDILLMEVLVLAVKQLFPEFEFMWLVDEAKKNLPLELDFLNEGRNAEKVSQMLRHFDFLKVPRIHWDLSTERVLLMEFVDGGQVNDRDYMERNKIDVNEISRHLGKMYSEMIFVNGFVHCDPHPGNVLVRKHPGTGKAEIVLLDHGLYQMLTEEFRLNYCHLWQSLIWTDMKRVKEYSQRLGAGDLYPLFACMLTARSWDSVNRGISQAPVTATEDLEIRNNAANYLPQISHLLNHVPRQMLLILKTNDLLRGIEAALGTRASASSFLNMSRCCIRALAEHKKKNTCSFFRRTQISFSEAFNLWQINLHELILRVKGLKLADRVLALICWLFPAPL [ADCK1],0.277,-0.197,–,–
MAVPGCNKDSVRAGCKKCGYPGHLTFECRNFLRVDPKRDIVLDVSSTSSEDSDEENEELNKLQALQEKRINEEEEKKKEKSKEKIKLKKKRKRSYSSSSTEEDTSKQKKQKYQKKEKKKEKKSKSKKGKHHKKEKKKRKKEKHSSTPNSSEFSRK [SREK1IP1],-0.6,-4.29,–,–
MCFSFIMPPAMADILDIWAVDSQIASDGSIPVDFLLPTGIYIQLEVPREATISYIKQMLWKQVHNYPMFNLLMDIDSYMFACVNQTAVYEELEDETRRLCDVRPFLPVLKLVTRSCDPGEKLDSKIGVLIGKGLHEFDSLKDPEVNEFRRKMRKFSEEKILSLVGLSWMDWLKQTYPPEHEPSIPENLEDKLYGGKLIVAVHFENCQDVFSFQVSPNMNPIKVNELAIQKRLTIHGKEDEVSPYDYVLQVSGRVEYVFGDHPLIQFQYIRNCVMNRALPHFILVECCKIKKMYEQEMIAIEAAINRNSSNLPLPLPPKKTRIISHVWENNNPFQIVLVKGNKLNTEETVKVHVRAGLFHGTELLCKTIVSSEVSGKNDHIWNEPLEFDINICDLPRMARLCFAVYAVLDKVKTKKSTKTINPSKYQTIRKAGKVHYPVAWVNTMVFDFKGQLRTGDIILHSWSSFPDELEEMLNPMGTVQTNPYTENATALHVKFPENKKQPYYYPPFDKIIEKAAEIASSDSANVSSRGGKKFLPVLKEILDRDPLSQLCENEMDLIWTLRQDCREIFPQSLPKLLLSIKWNKLEDVAQLQALLQIWPKLPPREALELLDFNYPDQYVREYAVGCLRQMSDEELSQYLLQLVQVLKYEPFLDCALSRFLLERALGNRRIGQFLFWHLRSEVHIPAVSVQFGVILEAYCRGSVGHMKVLSKQVEALNKLKTLNSLIKLNAVKLNRAKGKEAMHTCLKQSAYREALSDLQSPLNPCVILSELYVEKCKYMDSKMKPLWLVYNNKVFGEDSVGVIFKNGDDLRQDMLTLQMLRLMDLLWKEAGLDLRMLPYGCLATGDRSGLIEVVSTSETIADIQLNSSNVAAAAAFNKDALLNWLKEYNSGDDLDRAIEEFTLSCAGYCVASYVLGIGDRHSDNIMVKKTGQLFHIDFGHILGNFKSKFGIKRERVPFILTYDFIHVIQQGKTGNTEKFGRFRQCCEDAYLILRRHGNLFITLFALMLTAGLPELTSVKDIQYLKDSLALGKSEEEALKQFKQKFDEALRESWTTKVNWMAHTVRKDYRS [PIK3CB],0.304,0.592,–,–
MEINTKLLISVTCISFFTFQLLFYFVSYWFSAKVSPGFNSLSFKKKIEWNSRVVSTCHSLVVGIFGLYIFLFDEATKADPLWGGPSLANVNIAIASGYLISDLSIIILYWKVIGDKFFIMHHCASLYAYYLVLKNGVLAYIGNFRLLAELSSPFVNQRWFFEALKYPKFSKAIVINGILMTVVFFIVRIASMLPHYGFMYSVYGTEPYIRLGVLIQLSWVISCVVLDVMNVMWMIKISKGCIKVISHIRQEKAKNSLQNGKLD [TMEM56],0.000211,-0.867,–,–
MFPREKTWNISFAGCGFLGVYYVGVASCLREHAPFLVANATHIYGASAGALTATALVTGVCLGEAGAKFIEVSKEARKRFLGPLHPSFNLVKIIRSFLLKVLPADSHEHASGRLGISLTRVSDGENVIISHFNSKDELIQANVCSGFIPVYCGLIPPSLQGVRYVDGGISDNLPLYELKNTITVSPFSGESDICPQDSSTNIHELRVTNTSIQFNLRNLYRLSKALFPPEPLVLREMCKQGYRDGLRFLQRNGLLNRPNPLLALPPARPHGPEDKDQAVESAQAEDYSQLPGEDHILEHLPARLNEALLEACVEPTDLLTTLSNMLPVRLATAMMVPYTLPLESALSFTIRLLEWLPDVPEDIRWMKEQTGSICQYLVMRAKRKLGRHLPSRLPEQVELRRVQSLPSVPLSCAAYREALPGWMRNNLSLGDALAKWEECQRQLLLGLFCTNVAFPPEALRMRAPADPAPAPADPASPQHQLAGPAPLLSTPAPEARPVIGALGL [PNPLA2],-0.911,1.32,–,–
MLLSIGMLMLSATQVYTILTVQLFAFLNLLPVEADILAYNFENASQTFDDLPARFGYRLPAEGLKGFLINSKPENACEPIVPPPVKDNSSGTFIVLIRRLDCNFDIKVLNAQRAGYKAAIVHNVDSDDLISMGSNDIEVLKKIDIPSVFIGESSANSLKDEFTYEKGGHLILVPEFSLPLEYYLIPFLIIVGICLILIVIFMITKFVQDRHRARRNRLRKDQLKKLPVHKFKKGDEYDVCAICLDEYEDGDKLRILPCSHAYHCKCVDPWLTKTKKTCPVCKQKVVPSQGDSDSDTDSSQEENEVTEHTPLLRPLASVSAQSFGALSESRSHQNMTESSDYEEDDNEDTDSSDAENEINEHDVVVQLQPNGERDYNIANTV [RNF13],–,–,57.4,64.3
MRSGEELDGFEGEASSTSMISGASSPYQPTTEPVSQRRGLAGLRCDPDYLRGALGRLKVAQVILALIAFICIETIMACSPCEGLYFFEFVSCSAFVVTGVLLIMFSLNLHMRIPQINWNLTDLVNTGLSAFLFFIASIVLAALNHRAGAEIAAVIFGFLATAAYAVNTFLAVQKWRVSVRQQSTNDYIRARTESRDVDSRPEIQRLDTFSYSTNVTVRKKSPTNLLSLNHWQLA [CMTM4],–,–,58.1,–
MSLCSPTHSAEMSLFLQGPEEMLPLSSEGSEMGSEKEQSPEPHLPEEGEGGKPWRVDDSEGSWIPPGEKEHGQESLSDELQETHPKKPWQKVTVRARELGDPIAHPRHEADEKPFICAQCGKTFNNTSNLRTHQRIHTGEKPYKCSECGKSFSRSSNRIRHERIHLEEKHYKCPKCQESFRRRSDLTTHQQDHLGKRPYRCDICGKSFSQSATLAVHHRTHLEPAPYICCECGKSFSNSSSFGVHHRTHTGERPYECTECGRTFSDISNFGAHQRTHRGEKPYRCTVCGKHFSRSSNLIRHQKTHLGEQAGKDSS [ZNF691],–,–,54.9,53.1
MSLPPEKASELKQLIHQQLSKMDVHGRIREILAETIREELAPDQQHLSTEDLIKALRRRGIIDDVMKELNFVTDSVEQELPSSPKQPICFDRQSTLKKTNIDPTRRYLYLQVLGGKAFLEHLQEPEPLPGQVCSTFTLCLHYRNQRFRSKPVPCACEPDFHDGFLLEVHRESLGDGTRMADSTTMLSISDPIHMVLIKTDIFGETTLVASYFLEWRSVLGSENGVTSLTVELMGVGTESKVSVGILNIKLEMYPPLNQTLSQEVVNTQLALERQKTAEKERLFLVYAKQWWREYLQIRPSHNSRLVKIFAQDENGINRPVCSYVKPLRAGRLLDTPRQAARFVNVLGYERAPVIGGGGKQEQWCTLLAFLCRNKGDCEDHANLLCSLLLGYGLEAFVCVGTKAKGVPHAWVMTCGTDGAITFWESLTGHRYIHKPTNPDEPPVAEQPKPLYPYRTIGCVFNHQMFLGNCQPSDAVETCVFDLNDESKWKPMSEEAIKSVCAPGATTSLPPFPPLCASTIDASVTSNEIEMQLRLLVSEHRKDLGLTTVWEDQLSYLLSPALASYEFERTTSISAGNEEFQDAIRRAVPDGHTFKGFPIHFVYRNARRAFATCLRSPFCEEIICCRGDQVRLAVRVRVFTYPESACAVWIMFACKYRSVL [CEP76],–,–,53.7,–
MSLRCGDAARTLGPRVFGRYFCSPVRPLSSLPDKKKELLQNGPDLQDFVSGDLADRSTWDEYKGNLKRQKGERLRLPPWLKTEIPMGKNYNKLKNTLRNLNLHTVCEEARCPNIGECWGGGEYATATATIMLMGDTCTRGCRFCSVKTARNPPPLDASEPYNTAKAIAEWGLDYVVLTSVDRDDMPDGGAEHIAKTVSYLKERNPKILVECLTPDFRGDLKAIEKVALSGLDVYAHNVETVPELQSKVRDPRANFDQSLRVLKHAKKVQPDVISKTSIMLGLGENDEQVYATMKALREADVDCLTLGQYMQPTRRHLKVEEYITPEKFKYWEKVGNELGFHYTASGPLVRSSYKAGEFFLKNLVAKRKTKDL [LIAS],–,–,52.1,53.4
MSSHKGSVVAQGNGAPASNREADTVELAELGPLLEEKGKRVIANPPKAEEEQTCPVPQEEEEEVRVLTLPLQAHHAMEKMEEFVYKVWEGRWRVIPYDVLPDWLKDNDYLLHGHRPPMPSFRACFKSIFRIHTETGNIWTHLLGFVLFLFLGILTMLRPNMYFMAPLQEKVVFGMFFLGAVLCLSFSWLFHTVYCHSEKVSRTFSKLDYSGIALLIMGSFVPWLYYSFYCSPQPRLIYLSIVCVLGISAIIVAQWDRFATPKHRQTRAGVFLGLGLSGVVPTMHFTIAEGFVKATTVGQMGWFFLMAVMYITGAGLYAARIPERFFPGKFDIWFQSHQIFHVLVVAAAFVHFYGVSNLQEFRYGLEGGCTDDTLL [ADIPOR1],–,–,55.6,–
MWTLGRRAVAGLLASPSPAQAQTLTRVPRPAELAPLCGRRGLRTDIDATCTPRRASSNQRGLNQIWNVKKQSVYLMNLRKSGTLGHPGSLDETTYERLAEETLDSLAEFFEDLADKPYTFEDYDVSFGSGVLTVKLGGDLGTYVINKQTPNKQIWLSSPSSGPKRYDWTGKNWVYSHDGVSLHELLAAELTKALKTKLDLSSLAYSGKDA [FXN],–,–,53,53.3
RAPGEF6,–,–,47.3,48.9
